The target of the assay is T1, Sortilin SORTECD_HIS (human, UniProt Q99523 78-755).
T1 construct: also called Sortilin-ECD-His; HIS-tagged Sortilin ECD
T1 sequence: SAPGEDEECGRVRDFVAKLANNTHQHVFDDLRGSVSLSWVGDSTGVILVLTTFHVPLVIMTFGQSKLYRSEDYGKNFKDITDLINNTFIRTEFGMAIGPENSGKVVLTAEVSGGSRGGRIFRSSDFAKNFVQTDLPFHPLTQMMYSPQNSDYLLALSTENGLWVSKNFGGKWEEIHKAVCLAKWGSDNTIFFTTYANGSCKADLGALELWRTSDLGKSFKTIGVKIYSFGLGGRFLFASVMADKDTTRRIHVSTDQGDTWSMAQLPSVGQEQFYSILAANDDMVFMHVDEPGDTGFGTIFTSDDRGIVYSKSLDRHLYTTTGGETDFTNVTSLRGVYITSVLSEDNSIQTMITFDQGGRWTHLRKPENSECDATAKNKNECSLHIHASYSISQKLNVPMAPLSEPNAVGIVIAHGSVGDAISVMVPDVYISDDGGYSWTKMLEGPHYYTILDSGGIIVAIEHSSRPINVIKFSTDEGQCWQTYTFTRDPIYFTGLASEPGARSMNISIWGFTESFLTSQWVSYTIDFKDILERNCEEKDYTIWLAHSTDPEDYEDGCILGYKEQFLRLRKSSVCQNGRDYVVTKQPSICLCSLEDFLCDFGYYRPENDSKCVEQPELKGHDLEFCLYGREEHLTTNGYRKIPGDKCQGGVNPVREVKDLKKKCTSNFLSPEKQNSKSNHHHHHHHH
Kind of assay: HTRF, displacement of PGRN from His-tagged Sortilin ECD. The method, then: Dose-response evaluation of antibodies was performed with ten concentrations covering 50 pM to 1 μM in a 3-fold dilution curve. The half-maximal inhibitory concentration (IC50) values were calculated by non-linear regression using sigmoidal concentration response (variable slope) in XLfit 4 (IDBS, UK).
Experiments were performed in assay buffer (50 mM Phosphate, pH 7.0, 0.1% BSA) in a total volume of 20 μl in a Greiner 384 well, white, low volume microtiter plate, (784075, Greiner).
On the technique in general: TR-FRET usually uses a lanthanide donor and a delayed reading to cut background.

B1: 1289 (antibody, V domains shown)
VH: EVQLLESGGGLVQPGGSLRLSCAASGFTFSSFAMSWVRQAPGKGLEWVSAISGSGGSTYYADSVKGRFTISRDNSKNTLSLQMNSLRAEDTAVYYCATPITLVRGVGAFDIWGQGTMVTVSS
VL: not shown
notes: the sheets print 1289 only, the text names its one 1289 antibody 1289-02; also called IgG1-6003-1289; Antibody 1289-02
For the molecule B1, the “% inh highest conc” value worked out at 98%.

B2: 1320 (antibody, V domains shown)
VH: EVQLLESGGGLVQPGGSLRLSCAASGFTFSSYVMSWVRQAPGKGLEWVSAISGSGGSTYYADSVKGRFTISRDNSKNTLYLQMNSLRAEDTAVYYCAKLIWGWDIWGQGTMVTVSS
VL: EIVLTQSPATLSLSPGERATLSCRASQSVSSYLAWYQQRPGQAPRLLIYDASNRATGIPARFSGSGSGTDFTLSISSLEPEDFAVYYCQQRTNWSITFGQGTRLEIK
notes: also called Antibody 1320; Ab 1320
On to B2, for which the “% inh highest conc” value worked out at 75%.

(Values after US20170267761A1 (H LUNDBECK A S, published 2017).)
